# Where a SMILES comes first, the peptide text is derived from it. The star is where a group is joined. IRDye800CW = CC1(C)C(/C=C/C2=C(Oc3ccc(S(=O)(=O)O)cc3)C(=C/C=C3/N(CCCCS(=O)(=O)O)c4ccc(S(=O)(=O)O)cc4C3(C)C)/CCC2)=[N+](CCCCCC(=O)*)c2ccc(S(=O)(=O)[O-])cc21
# Assays:
# [1] = HPLC Rt as measure of relative lipophilicity; conditions: chromatographic, C18 RP (XBridge 150 × 4.6 mm, 3.5 μm), water/ACN 0.1% TFA, 20 to 50% ACN up to 10 min, 50 to 70% from 10 to 30 min, 1 mL/min, NIRF detection
# In vitro serum stability = conditions: nu/nu, mouse
# [2] = system: FBS (fetal bovine serum) proteins; test: FBS protein binding assay; conditions: 25 μM in 100% FBS, room temperature 30 s, Amicon 10 K cutoff, 12,000 g 15 min, fluorescence, p < 0.05
# Protocol: FBS protein binding assay. […] The concentration was chosen as the maximum expected in blood from an intravenous imaging dose of 40 nmol in a 20 g mouse, with a blood factor of 0.078 [40, 41]. Solutions (300 μL) were then loaded into an Amicon unit (0.5 mL, 10 K cutoff) and centrifuged at 12,000× g for 15 min [28]. Samples from the filtrate (50 μL), residual (5 μL), and original solution (5 μL) were loaded in duplicate into black wall 96-well plates containing 50 (for filtrate) or 95 (for residual and original) μL of PBS with 0.2% BSA. For an additional wash, 300 μL of PBS was then added into the Amicon unit. The unit was centrifuged as above. The same amounts of each of the parts were loaded into wells. Fluorescence intensity for each fraction was calculated by fraction volume × fluorescent unit/μL. Single factor ANOVA was used to analyze the data with p < 0.05 considered significant.
# Cal 27 cells = test: Fluorescence microscopy assay on Cal 27 cells; format: cell-based, Human; conditions: 10 μM, 1 h and 24 h incubations, 37 °C, 800 nm emission
# Protocol: Fluorescence microscopy assays. Cal 27 cells were seeded at 70,000/well in duplicate on eight-well chamber slides and allowed to attach overnight. Cell culture medium was replaced with 200 μL medium containing 10 μM peptides. Cells were incubated at 37 °C for 1–24 h followed by washing four times with 300 μL of HEPES buffer (25 mM HEPES 150 mM NaCl at pH 7.4) and once with the buffer containing 1 μg/mL DAPI. The chamber slide scaffold was then removed. Each chamber was then covered by a drop of aqua-poly mount and a coverslip, and sealed with clear nail polish. Cells were imaged with an Olympus IX81 microscope using an 800 nm emission filter set for IRDye800 conjugates and 461 nm for DAPI. Images were captured at 800 nm (red) for 5 s and at 461 nm (blue) with the automatic settings, at 200×. […]
# the measured fluorescence.
# The ratio of uptake at 2 h drops to about 13. Note:
# Figure 2 data are normalized to fHN-1-IR800 that was run adjacent to each of the hybrid-peptides. f-HN1- […]
# vertical scale magnitude of 4IphfHN17-IR800 between Figure 2 at ~4.5 and Figure S3 at ~13.
# Figure S4.Fluorescence microscopy of 1 h and 24 h incubations of 10 µM IR800-labeled hybrid-peptides in […]
# Cal 27 cells. […] HN1-IR800, HNJ-
# Figure S5. Blood clearance of hybrid-peptide molecules from normal mice as described in Materials and Methods. […]
SMILES,HPLC Rt (relative lipophilicity) [1],half-life at 6.4 μM (In vitro serum stability),peptide bound to FBS proteins [2],Uptake in Cal 27 cells by fluorescence microscopy (Cal 27 cells)
CC[C@H](C)[C@H](NC(=O)[C@H](CC(N)=O)NC(=O)[C@H](CC(C)C)NC(=O)[C@@H]1CCCN1C(=O)[C@H](CO)NC(=O)[C@@H](N)[C@@H](C)O)C(=O)N[C@@H](Cc1c[nH]cn1)C(=O)N[C@@H](CC(N)=O)C(=O)NCC(=O)N[C@@H](CCC(N)=O)C(=O)N[C@@H](CCCCNC(=O)CCCCC[N+]1=C(/C=C/C2=C(Oc3ccc(S(=O)(=O)O)cc3)C(=C/C=C3/N(CCCCS(=O)(=O)O)c4ccc(S(=O)(=O)O)cc4C3(C)C)/CCC2)C(C)(C)c2cc(S(=O)(=O)[O-])ccc21)C(=O)N[C@@H](CC(C)C)C(N)=O [HN1-IR800] (H-TSPLNIHNGQK(IRDye800CW)L-NH2),7.31 min,50.4 min,~52%,
CC1(C)C(/C=C/C2=C(Oc3ccc(S(=O)(=O)O)cc3)C(=C/C=C3/N(CCCCS(=O)(=O)O)c4ccc(S(=O)(=O)[O-])cc4C3(C)C)/CCC2)=[N+](CCCCCC(=O)O)c2ccc(S(=O)(=O)O)cc21 [IR800-COOH],,,,not observably taken up
